Earlier results in article PMC5150220.

Molecular target: sigma32 peptide 132-144 (Escherichia coli) (UniProt P0AGB3)

DnaK, sequence (P0A6Y8 2-638): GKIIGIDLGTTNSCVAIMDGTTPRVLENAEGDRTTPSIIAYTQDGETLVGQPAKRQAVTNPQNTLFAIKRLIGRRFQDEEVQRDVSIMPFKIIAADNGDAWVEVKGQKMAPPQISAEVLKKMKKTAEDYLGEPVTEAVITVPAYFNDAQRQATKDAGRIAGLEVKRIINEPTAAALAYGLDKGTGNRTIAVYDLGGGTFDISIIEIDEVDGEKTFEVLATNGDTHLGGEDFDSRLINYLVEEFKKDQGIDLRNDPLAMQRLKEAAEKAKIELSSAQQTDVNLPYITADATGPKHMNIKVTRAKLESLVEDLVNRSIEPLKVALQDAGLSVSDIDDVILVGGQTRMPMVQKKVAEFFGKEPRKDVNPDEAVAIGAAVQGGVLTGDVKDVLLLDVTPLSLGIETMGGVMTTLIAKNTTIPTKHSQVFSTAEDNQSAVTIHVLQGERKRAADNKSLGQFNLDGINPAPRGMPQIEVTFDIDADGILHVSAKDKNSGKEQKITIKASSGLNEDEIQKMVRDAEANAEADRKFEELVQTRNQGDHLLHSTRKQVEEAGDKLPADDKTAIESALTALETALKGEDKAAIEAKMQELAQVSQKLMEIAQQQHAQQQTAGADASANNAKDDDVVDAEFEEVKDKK

DnaK (from UniProt P0A6Y8)
Kd: 0.078 µM
